Substitutions are numbered along the chain they refer to.
T1: human GIP receptor (human, UniProt P48546 22-466)
T1 construct: whole, on cells; also called hGIPR; human glucose-dependent insulinotropic polypeptide receptor
T1 sequence (looked up): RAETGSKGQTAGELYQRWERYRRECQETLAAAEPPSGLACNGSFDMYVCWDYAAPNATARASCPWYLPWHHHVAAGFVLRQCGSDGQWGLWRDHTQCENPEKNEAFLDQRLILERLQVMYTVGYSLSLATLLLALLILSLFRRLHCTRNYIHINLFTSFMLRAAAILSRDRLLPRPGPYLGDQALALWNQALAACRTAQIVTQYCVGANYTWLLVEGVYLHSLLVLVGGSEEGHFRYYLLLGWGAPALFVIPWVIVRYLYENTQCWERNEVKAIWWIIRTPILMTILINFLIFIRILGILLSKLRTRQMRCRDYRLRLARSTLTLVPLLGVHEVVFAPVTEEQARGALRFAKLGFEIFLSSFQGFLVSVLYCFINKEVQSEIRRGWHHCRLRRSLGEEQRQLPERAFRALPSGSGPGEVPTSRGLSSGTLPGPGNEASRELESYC

B1: Y-Aib-EGT-αMeF(2F)-TSD-4Pal-Aib-I-αMeL-LD-Orn-QAQ-Aib-Orn-FIK(((2-[2-(2-Amino-ethoxy)-ethoxy]-acetyl)2--Trx-(γ-Glu)-(10-(4-carboxyphenoxy)decanoyl))-αMeY-LIK((( … (peptide)
peptide: YXEGTXTSDXXIXLDXQAQXXFIKXLIKGGPSSGAPPPS
modifications: Aib2, αMeF(2F)6, 4Pal10, Aib11, αMeL13, Orn16, Aib20, Orn21, K24(Z1), αMeY25, K28(Z1), C-term NH2; Z1=AEEA2-Trx-(γ-Glu)-(10-(4-carboxyphenoxy)decanoyl)
B2: Y-Aib-EGT-αMeF(2F)-TSD-4Pal-Aib-I-αMeL-LD-Orn-QAQ-Aib-Orn-FIK(PEG6-(γ-Glu)-CO-(CH2)12-CO2H)-αMeY-LIK(PEG6-(γ-Glu)-CO-(CH2)12-CO2H)GGPSSGAPPPS-NH2 (peptide)
peptide: B1 peptide
modifications: Aib2, αMeF(2F)6, 4Pal10, Aib11, αMeL13, Orn16, Aib20, Orn21, K24(Z1), αMeY25, K28(Z1), C-term NH2; Z1=PEG6-(γ-Glu)-CO-(CH2)12-CO2H
B3: Y-Aib-EGT-αMeF(2F)-TSD-4Pal-Aib-I-αMeL-LD-Orn-QAQ-Aib-Orn-FIK((2-[2-(2-Amino-ethoxy)-ethoxy]-acetyl)2-(γ-Glu)2--(10-(4-carboxyphenoxy)decanoyl))-αMeY-LIK((2-[2- … (peptide)
peptide: B1 peptide
modifications: Aib2, αMeF(2F)6, 4Pal10, Aib11, αMeL13, Orn16, Aib20, Orn21, K24(Z1), αMeY25, K28(Z1), C-term NH2; Z1=AEEA2-(γ-Glu)2-(10-(4-carboxyphenoxy)decanoyl)
B4: Y-Aib-EGT-αMeF(2F)-TSD-4Pal-Aib-I-αMeL-LD-Orn-QAQ-Aib-Orn-FIK(((2-[2-(2-Amino-ethoxy)-ethoxy]-acetyl)-Trx-(γ-Glu)-(10-(4-carboxyphenoxy)decanoyl))-αMeY-LIK(((2- … (peptide)
peptide: B1 peptide
modifications: Aib2, αMeF(2F)6, 4Pal10, Aib11, αMeL13, Orn16, Aib20, Orn21, K24(Z1), αMeY25, K28(Z1), C-term NH2; Z1=AEEA-Trx-(γ-Glu)-(10-(4-carboxyphenoxy)decanoyl)
B5: Y-Aib-EGT-αMeF(2F)-TSD-4Pal-Aib-I-αMeL-LD-Orn-QAQ-Aib-Orn-FIK(PEG4-(γ-Glu)-(10-(4-carboxyphenoxy)decanoyl))-αMeY-LIK(PEG4-(γ-Glu)-(10-(4-carboxyphenoxy)decanoyl … (peptide)
peptide: B1 peptide
modifications: Aib2, αMeF(2F)6, 4Pal10, Aib11, αMeL13, Orn16, Aib20, Orn21, K24(Z1), αMeY25, K28(Z1), C-term NH2; Z1=PEG4-(γ-Glu)-(10-(4-carboxyphenoxy)decanoyl)
B6: Y-Aib-EGT-αMeF(2F)-TSD-4Pal-Aib-I-αMeL-LD-Orn-QAQ-Aib-Orn-FIK(PEG3-(γ-Glu)-(10-(4-carboxyphenoxy)decanoyl))-αMeY-LIK(PEG3-(γ-Glu)-(10-(4-carboxyphenoxy)decanoyl … (peptide)
peptide: B1 peptide
modifications: Aib2, αMeF(2F)6, 4Pal10, Aib11, αMeL13, Orn16, Aib20, Orn21, K24(Z1), αMeY25, K28(Z1), C-term NH2; Z1=PEG3-(γ-Glu)-(10-(4-carboxyphenoxy)decanoyl)
B7: Y-Aib-EGT-αMeF(2F)-TSD-4Pal-Aib-I-αMeL-LD-Orn-K(((2-[2-(2-Amino-ethoxy)-ethoxy]-acetyl)-Aoc-CO-(CH2)12-CO2H)AQ-Aib-EFI-(D-Glu)-αMeY-LIK(((2-[2-(2-Amino-ethoxy)- … (peptide)
peptide: B1 peptide with Q17K, X21E, K24X
modifications: Aib2, αMeF(2F)6, 4Pal10, Aib11, αMeL13, Orn16, K17(Z1), Aib20, D-Glu24, αMeY25, K28(Z1), C-term NH2; Z1=AEEA-Aoc-CO-(CH2)12-CO2H
B8: Y-Aib-EGT-αMeF(2F)-TSD-4Pal-Aib-I-αMeL-LD-Orn-QAQ-Aib-Orn-FIK((2-[2-(2-Amino-ethoxy)-ethoxy]-acetyl)-(γ-Glu)-(2-[2-(2-Amino-ethoxy)-ethoxy]-acetyl)-(γ-Glu)-CO-( … (peptide)
peptide: B1 peptide
modifications: Aib2, αMeF(2F)6, 4Pal10, Aib11, αMeL13, Orn16, Aib20, Orn21, K24(Z1), αMeY25, K28(Z1), C-term NH2; Z1=AEEA-(γ-Glu)-AEEA-(γ-Glu)-CO-(CH2)12-CO2H
B9: Y-Aib-EGT-αMeF(2F)-TSD-4Pal-Aib-I-αMeL-LD-Orn-QAQ-Aib-Orn-FIK(PEG4-(γ-Glu)-CO-(CH2)12-CO2H)-αMeY-LIK(PEG4-(γ-Glu)-CO-(CH2)12-CO2H)GGPSSGAPPPS-NH2 (peptide)
peptide: B1 peptide
modifications: Aib2, αMeF(2F)6, 4Pal10, Aib11, αMeL13, Orn16, Aib20, Orn21, K24(Z1), αMeY25, K28(Z1), C-term NH2; Z1=PEG4-(γ-Glu)-CO-(CH2)12-CO2H

How the values were obtained:
human GIP receptor = target: T1, human GIP receptor; assay: SPA competition vs [125I]-GIP, hGIPR membranes
human glucagon receptor = target: T2, human glucagon receptor (human, UniProt P47871 26-477); assay: SPA competition vs [125I]-Gcg, hGcgR membranes
T2 construct: whole, on cells; also called hGCGR; hGcgR

human GLP-1 receptor = target: T3, human GLP-1 receptor (human, UniProt P43220 24-463); assay: SPA competition vs [125I]-GLP-1, hGLP-1R membranes
T3 construct: whole, on cells; also called hGLP-1R; human glucagon-like peptide-1 receptor
Method in brief: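 Competition binding in 25 mM HEPES pH 7.4, 2.5 mM CaCl₂, 1 mM MgCl₂, 0.1% bacitracin, 0.003% TWEEN-20, EDTA-free protease inhibitors. IC₅₀ from four-parameter nonlinear fit; Kᵢ given as geometric mean ± SEM, n = independent replicates on different days.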

T2 sequence (P47871 26-477): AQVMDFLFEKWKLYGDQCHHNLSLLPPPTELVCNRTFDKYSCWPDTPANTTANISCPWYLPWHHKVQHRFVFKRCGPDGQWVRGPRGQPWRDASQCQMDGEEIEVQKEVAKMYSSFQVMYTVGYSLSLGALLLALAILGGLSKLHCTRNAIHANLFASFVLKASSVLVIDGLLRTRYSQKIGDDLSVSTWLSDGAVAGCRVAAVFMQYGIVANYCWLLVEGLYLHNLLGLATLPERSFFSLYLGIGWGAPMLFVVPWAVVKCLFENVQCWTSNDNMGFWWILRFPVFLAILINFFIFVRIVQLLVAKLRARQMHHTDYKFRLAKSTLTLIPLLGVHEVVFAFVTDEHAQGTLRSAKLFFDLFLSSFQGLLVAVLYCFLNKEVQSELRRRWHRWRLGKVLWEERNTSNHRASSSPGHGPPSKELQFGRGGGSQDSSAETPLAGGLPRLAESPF

Row | Binder | Ki (human GIP receptor) [nM] | Ki (human glucagon receptor) [nM] | Ki (human GLP-1 receptor) [nM]
1 | B1 | 0.0493 | 452 | 0.197
2 | B2 | 0.0199 | 342 | 0.2
3 | B3 | 0.0294 | 139 | 0.189
4 | B4 | 0.0319 | 162 | 0.169
5 | B5 | 0.01 | 101 | 0.14
6 | B6 | 0.0102 | 87.5 | 0.125
7 | B7 | 0.0464 | 304 | 1.29
8 | B8 | 0.0296 | 305 | 0.268
9 | B9 | 0.0419 | 351 | 0.252
